Reference: the RNAGym collection of RNA variant scans (doi:10.7554/elife.80360)

B1: Hammerhead Ribozyme (parent)
chain: ACCGGAUGUGCUUUCCGGUCUGAUGAGUCCGUGAGGACGAAACAG

Variants of: B1
Assay: self-cleavage, relative activity (ratio to wild type); higher = more cleavage; co-transcriptional

Variant	self-cleavage
ACCGUAUGGGCUUUCCGGUCUGAUGAGUCCGUGAGGACGAAACAG [G5U U9G]	0.523
ACCGUAUGAGCUUUCCGGUCUGAUGAGUCCGUGAGGACGAAACAG [G5U U9A]	0.723
ACCGUAUGCGCUUUCCGGUCUGAUGAGUCCGUGAGGACGAAACAG [G5U U9C]	0.881
ACCGUAUGUGCUUUCCGGUCUUAUGAGUCCGUGAGGACGAAACAG [G5U G22U]	0.304
ACCGUAUGUGCUUUCCGGUCUAAUGAGUCCGUGAGGACGAAACAG [G5U G22A]	0.269
ACCGUAUGUGCUUUCCGGUCUCAUGAGUCCGUGAGGACGAAACAG [G5U G22C]	0.251
ACCGUAUGUGCCUUCCGGUCUGAUGAGUCCGUGAGGACGAAACAG [G5U U12C]	0.804
ACCGUAUGUGCGUUCCGGUCUGAUGAGUCCGUGAGGACGAAACAG [G5U U12G]	0.806
ACCGUAUGUGCAUUCCGGUCUGAUGAGUCCGUGAGGACGAAACAG [G5U U12A]	1.1
ACCGUAUGUGCUUUCUGGUCUGAUGAGUCCGUGAGGACGAAACAG [G5U C16U]	0.894
ACCGUAUGUGCUUUCAGGUCUGAUGAGUCCGUGAGGACGAAACAG [G5U C16A]	1.11
ACCGUAUGUGCUUUCGGGUCUGAUGAGUCCGUGAGGACGAAACAG [G5U C16G]	0.883
ACCGGCUGUGCUUUCCGGUCUGAUGAGUCCGUGGGGACGAAACAG [A6C A34G]	0.722
ACCGGCUGUGCUUUCCGGUCUGAUGAGUCCGUGCGGACGAAACAG [A6C A34C]	0.745
ACCGGCUGUGCUUUCCGGUCUGAUGAGUCCGUGUGGACGAAACAG [A6C A34U]	0.529
ACCGUAUAUGCUUUCCGGUCUGAUGAGUCCGUGAGGACGAAACAG [G5U G8A]	0.748
ACCGUAUCUGCUUUCCGGUCUGAUGAGUCCGUGAGGACGAAACAG [G5U G8C]	0.942
ACCGUAUUUGCUUUCCGGUCUGAUGAGUCCGUGAGGACGAAACAG [G5U G8U]	0.81
ACCGGCUGUGCUUUCCGGUCUGAUGAGUCCGUGAGGACGAAGCAG [A6C A42G]	0.329

Variant	self-cleavage
ACCGGCUGUGCUUUCCGGUCUGAUGAGUCCGUGAGGACGAAUCAG [A6C A42U]	0.295
ACCGGCUGUGCUUUCCGGUCUGAUGAGUCCGUGAGGACGAACCAG [A6C A42C]	0.35
ACCGGCUGUGCUUUCCGGUCUGAUGAGUCCGUGAGGACGAUACAG [A6C A41U]	0.383
ACCGGCUGUGCUUUCCGGUCUGAUGAGUCCGUGAGGACGAGACAG [A6C A41G]	0.374
ACCGGCUGUGCUUUCCGGUCUGAUGAGUCCGUGAGGACGACACAG [A6C A41C]	0.274
ACCGUAUGUGCUUUCCGGUCUGAUGAGUCCGUUAGGACGAAACAG [G5U G33U]	1.06
ACCGUAUGUGCUUUCCGGUCUGAUGAGUCCGUAAGGACGAAACAG [G5U G33A]	0.913
ACCGUAUGUGCUUUCCGGUCUGAUGAGUCCGUCAGGACGAAACAG [G5U G33C]	0.813
ACCGUAUGUGCUUUCCGGUCUGAUGAGUCUGUGAGGACGAAACAG [G5U C30U]	0.967
ACCGUAUGUGCUUUCCGGUCUGAUGAGUCAGUGAGGACGAAACAG [G5U C30A]	0.795
ACCGUAUGUGCUUUCCGGUCUGAUGAGUCGGUGAGGACGAAACAG [G5U C30G]	0.445
ACCGUAUGUGCUUUCCGGACUGAUGAGUCCGUGAGGACGAAACAG [G5U U19A]	0.29
ACCGUAUGUGCUUUCCGGCCUGAUGAGUCCGUGAGGACGAAACAG [G5U U19C]	0.396
ACCGUAUGUGCUUUCCGGGCUGAUGAGUCCGUGAGGACGAAACAG [G5U U19G]	0.379
ACCGUAUGUGCUUUCCGGUCUGAUGAGUCCGUGAGGACUAAACAG [G5U G39U]	0.33
ACCGUAUGUGCUUUCCGGUCUGAUGAGUCCGUGAGGACCAAACAG [G5U G39C]	0.306
ACCGUAUGUGCUUUCCGGUCUGAUGAGUCCGUGAGGACAAAACAG [G5U G39A]	0.339
ACCGUAUGUGCUUUCCGGUCUGAUGAGUCCGUGAUGACGAAACAG [G5U G35U]	0.516
ACCGUAUGUGCUUUCCGGUCUGAUGAGUCCGUGAAGACGAAACAG [G5U G35A]	0.476

Variant	self-cleavage
ACCGUAUGUGCUUUCCGGUCUGAUGAGUCCGUGACGACGAAACAG [G5U G35C]	0.361
ACCGGCUGUGCUUUCCGGUCUGGUGAGUCCGUGAGGACGAAACAG [A6C A23G]	0.306
ACCGGCUGUGCUUUCCGGUCUGCUGAGUCCGUGAGGACGAAACAG [A6C A23C]	0.333
ACCGGCUGUGCUUUCCGGUCUGUUGAGUCCGUGAGGACGAAACAG [A6C A23U]	0.271
ACCGUAUGUGCUUUCCGGUCUGAUGAGUUCGUGAGGACGAAACAG [G5U C29U]	0.682
ACCGUAUGUGCUUUCCGGUCUGAUGAGUACGUGAGGACGAAACAG [G5U C29A]	0.402
ACCGUAUGUGCUUUCCGGUCUGAUGAGUGCGUGAGGACGAAACAG [G5U C29G]	0.434
ACCGUAUGUGCUUUACGGUCUGAUGAGUCCGUGAGGACGAAACAG [G5U C15A]	1.43
ACCGUAUGUGCUUUUCGGUCUGAUGAGUCCGUGAGGACGAAACAG [G5U C15U]	1.17
ACCGUAUGUGCUUUGCGGUCUGAUGAGUCCGUGAGGACGAAACAG [G5U C15G]	1.15
ACCGGCUGUGCUUUCCGGUCUGAUGCGUCCGUGAGGACGAAACAG [A6C A26C]	0.348
ACCGGCUGUGCUUUCCGGUCUGAUGGGUCCGUGAGGACGAAACAG [A6C A26G]	0.147
ACCGGCUGUGCUUUCCGGUCUGAUGUGUCCGUGAGGACGAAACAG [A6C A26U]	0.337
ACCGUAUGUGCUUUCCGGUAUGAUGAGUCCGUGAGGACGAAACAG [G5U C20A]	0.292
ACCGUAUGUGCUUUCCGGUUUGAUGAGUCCGUGAGGACGAAACAG [G5U C20U]	0.595
ACCGUAUGUGCUUUCCGGUGUGAUGAGUCCGUGAGGACGAAACAG [G5U C20G]	0.333
ACCGUAUGUGCUUUCCCGUCUGAUGAGUCCGUGAGGACGAAACAG [G5U G17C]	0.309
ACCGUAUGUGCUUUCCAGUCUGAUGAGUCCGUGAGGACGAAACAG [G5U G17A]	0.337
ACCGUAUGUGCUUUCCUGUCUGAUGAGUCCGUGAGGACGAAACAG [G5U G17U]	0.351
